This note sets out measurements from article PMC4964982 (2016).

What all share (experiment): TR-FRET competition with SRC3 fragment
(In general: In TR-FRET formats the signal depends on donor and acceptor labels being close together.)

One experiment has as its target T1, SRC2-SP4 687-697 (Homo sapiens, UniProt Q15596, staple 3-7).
T1 chain: HK[S5]LHR[S5]LQDS

For a further experiment, the target named is T2, PFE-SP2 687-697 (Homo sapiens, UniProt Q15596, staple 3-7; also: R to Q substitution, place not given here).
T2 chain: HK[S5]LHR[S5]LQDS

Another experiment concerns the target T3, SRC2-WT 687-697 (Homo sapiens, UniProt Q15596).
T3 chain: HKILHRLLQDS

As usually defined, the IC50 is the point on the concentration scale where inhibition reaches its midpoint.

Bridge positions count the residues as written; N and C are the ends. Square brackets hold non-standard residues; d marks the D form. Ends that are not written are not given here. S5 = C=CCCC[C@](C)(N)C(=O)O

B1: ERα LBD (protein)
chain: NSLALSLTADQMVSALLDAEPPILYSEYDPTRPFSEASMMGLLTNLADRELVHMINWAKRVPGFVDLTLHDQVHLLECAWLEILMIGLVWRSMEHPGKLLFAPNLLLDRNQGKCVEGMVEIFDMLLATSSRFRMMNLQGEEFVCLKSIILLNSGVYTFLSSTLKSLEEKDHIHRVLDKITDTLIHLMAKAGLTLQQQHQRLAQLLLILSHIRHMSNKGMEHLYSMKCKNVVPLYDLLLEMLDAHRLHAPTS
Turning to B1, the IC50 with SRC2-SP4 687-697 came out at 390 nM; with PFE-SP2 687-697, 760 nM; in the experiment with SRC2-WT 687-697 it was 1100 nM.
